For data set [1], the target named is T1, biotin-conjugated bovine serum albumin (bovine, UniProt P02769 25-607).
T1 construct: Immobilised on a CM5 sensor chip; also called biotinylated bovine serum albumin (BSA)
In words: SPR (BIAcoreX), biotin-conjugated BSA immobilised on CM5 chip, mutein in solution. As for the experimental part: (§1) The kinetic parameters (both on- and off-rates for interaction with biotin) of streptavidin muteins were determined in real time using the surface plasmon resonance based BIAcoreX biosensor. Biotin-conjugated bovine serum albumin immobilized on CM5 sensor chip was used to study the reversibility of biotin binding (Qureshi, 2001).
(In SPR one partner is held on a chip, and binding of the other changes the refractive index at the surface.)

In data set [2] the target is T1, biotin-conjugated bovine serum albumin. The experiment in a line: SPR (BIAcoreX), biotin-conjugated BSA immobilised on CM5 chip, mutein in solution; Kd = kd/ka. On the procedure: as §1
Data set [3] concerns the molecule itself. The experiment in a line: SDS-PAGE/Western blot of non-boiled culture supernatant; self-association of subunits.
Data set [4] concerns the molecule itself. The experiment in a line: SDS-PAGE/Western blot of non-boiled culture supernatant, 20 uM biotin in medium; self-association of subunits. As for the experimental part: FIG. 3: Western blot analysis of cell culture supernatants from B. subtilis strains producing streptavidin muteins carrying a single mutation. 15 μl of non-boiled sample of culture supernatant was loaded to each lane. Samples on the left set were collected from B. subtilis strains cultured in super-rich medium without additional supplement of biotin. Samples on the right set were collected from B. subtilis strains cultured in super-rich medium with additional supplementation of biotin (20 μM). The blot was probed with polyclonal antibodies against streptavidin and developed using 4-chloro-1-napthol (Bio-Rad) as the colour development agent. […] M, molecular weight markers; wt, wild type streptavidin.
FIG. 4: Analysis of culture supernatants from B. subtilis strains producing streptavidin muteins carrying different combinations of mutations. All these strains were cultivated in super-rich medium supplemented with biotin (20 μM). The 15 μl of non-boiled samples of culture supernatants were loaded. FIG. 4A. Coomassie blue stained SDS-polyacrylamide gel. Bands corresponding to tetrameric and monomeric streptavidin are marked by an asterisk and an arrowhead, respectively. FIG. 4B. Western blot probed with polyclonal antibodies against streptavidin. […]
In general terms: Immunoblotting shows a protein as a band on a membrane.

What is called koff is the rate constant with which the complex falls apart. A lower koff goes with slow dissociation. For orientation: kon means the second-order rate constant of association. A lower kon goes with slower complex formation. What is called Kd is the free concentration of one partner at which half of the binding sites on the other are occupied at equilibrium, for simple one-to-one binding. The low end stands for higher affinity, the high end for lower affinity.

T1 sequence (P02769 25-607 limits assumed): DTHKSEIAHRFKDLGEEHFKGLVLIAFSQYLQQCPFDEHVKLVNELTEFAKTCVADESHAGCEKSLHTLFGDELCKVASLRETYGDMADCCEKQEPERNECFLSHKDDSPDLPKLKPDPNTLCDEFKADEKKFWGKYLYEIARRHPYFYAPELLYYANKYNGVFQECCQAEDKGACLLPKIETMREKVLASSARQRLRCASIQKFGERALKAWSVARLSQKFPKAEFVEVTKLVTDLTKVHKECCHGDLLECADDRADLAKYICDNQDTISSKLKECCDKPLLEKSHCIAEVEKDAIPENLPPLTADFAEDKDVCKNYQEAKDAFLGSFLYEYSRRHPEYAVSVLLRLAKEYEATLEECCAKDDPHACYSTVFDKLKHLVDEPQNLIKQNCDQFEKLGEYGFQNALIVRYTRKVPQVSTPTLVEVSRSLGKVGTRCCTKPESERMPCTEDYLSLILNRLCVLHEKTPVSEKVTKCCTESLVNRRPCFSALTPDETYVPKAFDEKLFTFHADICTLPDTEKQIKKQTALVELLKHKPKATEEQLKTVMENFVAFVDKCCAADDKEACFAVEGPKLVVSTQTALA

B1: streptavidin mutein M4 (T76R, V125R, V55T, L109T), secreted by B. subtilis (other)
chain: DPSKDSKAQVSAAEAGITGTWYNQLGSTFIVTAGADGALTGTYESAVGNAESRYTLTGRYDSAPATDGSGTALGWRVAWKNNYRNAHSATTWSGQYVGGAEARINTQWTLTSGTTEANAWKSTLRGHDTFTKVKPSAASIDAAKKAGVNNGNPLDAVQQ
notes: Monomeric in solution; also called M4 mutein
In data set [1], B1 showed a koff of 0.00339 s⁻¹ and a kon of 18000 M⁻¹ s⁻¹. In data set [2], the dissociation constant Kd is 187 nM. For the same molecule, in data set [3], the “% tetramer, no additional biotin” value was 0%. The “% tetramer, with additional biotin” value in data set [4] amounted to 0%.
